Drawing on article PMC10404681, “Intrinsic catalytic properties of histone H3 lysine-9 methyltransferases preserve monomethylation levels under low S-adenosylmethionine” (The Journal of Biological Chemistry, 2023), this text covers Kd for 3 molecules.

What all share (assay): fluorescence polarisation; enzyme titrated (0-10 uM, monomeric) against a fixed 20-100 nM of N-terminus 5-FAM labeled H3(1-17) peptide, with 100 uM SAH; 50 mM HEPES pH 7.9, 2 mM MgCl2, 0.5 mM DTT, 0.1 mM AEBSF, 0.01% Triton X-100, 10% glycerol; 10 min at 25 °C; one site specific binding fit
Holding throughout (settings): both partners purified
Background: In fluorescence polarisation assays a small probe gives low polarisation when free and higher when bound to something large.

Assay [1] deals with T1, H. sapiens SUV39H2 catalytic subunit (amino acids 162 to 410) (H. sapiens, UniProt Q9H5I1 162-410).
T1 construct: Plasmid from Addgene (gift of Cheryl Arrowsmith); The tag is surmised from the nickel column purification; also called KMT1B; source: Rosetta E. coli, purified (HisTrap FF nickel column, dialysis)

Assay [2] has as its target T2, H. sapiens EHMT1 catalytic subunit (amino acids 982 to 1266) (H. sapiens, UniProt Q9H9B1 982-1266).
T2 construct: EHMT1 (G9a-like protein, KMT1D), human, catalytic subunit, amino acids 982 to 1266; UniProt entry Q9H9B1 is printed for human EHMT1; Plasmid from Addgene (gift of Cheryl Arrowsmith); The tag is surmised from the nickel column purification; also called G9a-like protein; GLP; source: Rosetta E. coli, purified (HisTrap FF nickel column, dialysis)
T2 sequence (looked up): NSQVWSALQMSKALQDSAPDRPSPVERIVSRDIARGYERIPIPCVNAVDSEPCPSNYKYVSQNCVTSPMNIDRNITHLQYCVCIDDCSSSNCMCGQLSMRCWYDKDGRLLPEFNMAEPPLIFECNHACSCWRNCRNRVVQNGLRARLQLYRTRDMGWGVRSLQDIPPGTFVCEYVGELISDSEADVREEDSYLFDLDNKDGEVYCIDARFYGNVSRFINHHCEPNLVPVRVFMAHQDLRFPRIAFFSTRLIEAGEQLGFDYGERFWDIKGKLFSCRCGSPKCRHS

Assay [3] has as its target T3, H. sapiens EHMT2 catalytic subunit (amino acids 913 to 1193) (H. sapiens, UniProt Q96KQ7 913-1193).
T3 construct: EHMT2 (G9a, KMT1C), human, catalytic subunit, amino acids 913 to 1193; Plasmid provided by the laboratory of Peter W. Lewis; The tag is surmised from the nickel column purification; also called G9a; KMT1C; source: Rosetta E. coli, purified (HisTrap FF nickel column, dialysis)
T3 sequence (looked up): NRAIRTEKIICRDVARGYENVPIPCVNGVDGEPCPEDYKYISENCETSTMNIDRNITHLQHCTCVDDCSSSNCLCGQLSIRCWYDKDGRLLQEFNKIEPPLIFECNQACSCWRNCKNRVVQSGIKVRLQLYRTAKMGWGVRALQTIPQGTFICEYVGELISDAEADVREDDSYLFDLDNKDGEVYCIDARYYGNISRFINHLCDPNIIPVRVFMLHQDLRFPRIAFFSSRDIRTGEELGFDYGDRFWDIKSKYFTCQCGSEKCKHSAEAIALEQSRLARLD

In assay [4] the target is T4, SUV39H1, full length with N-terminal maltose-binding protein (UniProt O43463 1-412).
T4 construct: SUV39H1 (KMT1A), full length; Plasmid generated for this study; The His tag is surmised from the nickel column purification; also called KMT1A; source: Rosetta E. coli, purified (HisTrap FF nickel column, dialysis)
T4 sequence (looked up): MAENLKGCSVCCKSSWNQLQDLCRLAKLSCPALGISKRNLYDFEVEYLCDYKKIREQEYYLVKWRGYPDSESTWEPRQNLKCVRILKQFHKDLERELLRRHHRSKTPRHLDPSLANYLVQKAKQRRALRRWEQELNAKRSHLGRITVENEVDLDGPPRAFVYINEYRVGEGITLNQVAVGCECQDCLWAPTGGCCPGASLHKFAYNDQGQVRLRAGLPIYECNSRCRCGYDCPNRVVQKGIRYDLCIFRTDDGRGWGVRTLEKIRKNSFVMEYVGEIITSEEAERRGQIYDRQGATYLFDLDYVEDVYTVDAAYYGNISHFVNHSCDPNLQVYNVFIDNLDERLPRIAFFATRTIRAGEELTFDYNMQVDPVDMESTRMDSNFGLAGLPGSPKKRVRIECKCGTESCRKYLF

*: point of attachment. 5FAM = O=C1OC2(c3ccc(O)cc3Oc3cc(O)ccc32)c2ccc(C(=O)*)cc21

T1 sequence (Q9H5I1 162-410): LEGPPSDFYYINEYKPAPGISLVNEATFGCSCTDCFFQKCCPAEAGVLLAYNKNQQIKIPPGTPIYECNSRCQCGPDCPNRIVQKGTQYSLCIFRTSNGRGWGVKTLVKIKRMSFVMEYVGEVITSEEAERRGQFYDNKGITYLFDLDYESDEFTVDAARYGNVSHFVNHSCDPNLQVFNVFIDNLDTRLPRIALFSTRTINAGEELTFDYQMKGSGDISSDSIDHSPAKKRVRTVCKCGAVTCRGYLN

B1: H3(1-17) K9 unmodified peptide, N-terminus 5-FAM labeled (peptide, UniProt P68431 2-18, looked up)
peptide: 5FAM-ARTKQTARKSTGGKAPR-NH2
notes: Histone H3, residues 1-17, lysine 9 unmodified; Made on Rink-amide resin, so the C-terminus is probably an amide (surmised); Residues 1-17 are the same in H3.1, H3.2 and H3.3; also called H3K9un; source: synthetic peptide (solid phase synthesis on Rink-amide ChemMatrix resin, C18-HPLC-purified)
For B1, the Kd (commonly a measure of binding affinity in units of concentration) in assay [1] came out at 1080 ± 226 nM; in assay [2] it was 29 ± 1 nM; in assay [3], 16 ± 0.4 nM; in assay [4], 499 ± 45 nM.

B2: H3(1-17) K9 dimethylated peptide, N-terminus 5-FAM labeled (peptide, UniProt P68431 2-18, looked up)
peptide: ARTKQTARKSTGGKAPR
modifications: 5-Carboxyfluorescein (5-FAM) on the N-terminus; dimethyl-lysine at 9
notes: Histone H3, residues 1-17, lysine 9 dimethylated; Made on Rink-amide resin, so the C-terminus is probably an amide (surmised); also called H3K9me2; source: synthetic peptide (solid phase synthesis on Rink-amide ChemMatrix resin, C18-HPLC-purified)
In the case of B2, the Kd in assay [1] was 929 ± 573 nM; in assay [2], 124 ± 24 nM; in assay [3], 40 ± 3 nM; in assay [4], 479 ± 123 nM.

B3: H3(1-17) K9 monomethylated peptide, N-terminus 5-FAM labeled (peptide, UniProt P68431 2-18, looked up)
peptide: ARTKQTARKSTGGKAPR
modifications: 5-Carboxyfluorescein (5-FAM) on the N-terminus; monomethyl-lysine at 9
notes: Histone H3, residues 1-17, lysine 9 monomethylated; Made on Rink-amide resin, so the C-terminus is probably an amide (surmised); also called H3K9me1; source: synthetic peptide (solid phase synthesis on Rink-amide ChemMatrix resin, C18-HPLC-purified)
With B3, the Kd in assay [1] was 694 ± 98 nM; in assay [2], 74 ± 10 nM; in assay [3] it was 26 ± 1 nM; in assay [4], 750 ± 47 nM.
